Assays:
HLA-B*08:01 = test: IEDB peptide-MHC binding, purified MHC/competitive/fluorescence; ≥ and ≤ were set here for values at or beyond the usual limits of such assays; settings: source organism: Zaire ebolavirus
HLA-B*40:01 [1] = test: IEDB peptide-MHC binding, purified MHC/competitive/fluorescence; filed as Kd, often an IC50 or EC50 that approximates it; ≥ and ≤ were set here for values at or beyond the usual limits of such assays
HLA-B*40:01 [2] = test: IEDB peptide-MHC binding, purified MHC/direct/fluorescence; filed as Kd, often an IC50 or EC50 that approximates it; ≥ and ≤ were set here for values at or beyond the usual limits of such assays; settings: source organism: Escherichia coli O157:H7
HLA-A*11:01 = test: as above; settings: source organism: Escherichia coli O157:H7
HLA-B*46:01 = test: as above; settings: source organism: Escherichia coli O157:H7
HLA-B*18:01 = test: as above; settings: source organism: Escherichia coli O157:H7
HLA-A*29:02 [3] = test: as above; settings: source organism: Escherichia coli O157:H7
HLA-B*44:02 = test: as above; settings: source organism: Escherichia coli O157:H7
HLA-A*01:01 [4] = test: as above
HLA-B*27:05 = test: as above
HLA-B*58:01 [5] = test: as above
HLA-B*48:01 = test: as above; settings: source organism: Escherichia coli O157:H7
HLA-A*69:01 [6] = test: as above; settings: source organism: Escherichia coli O157:H7
HLA-B*57:01 [7] = test: as above
HLA-A*03:01 [8] = test: as above
HLA-A*29:02 [9] = test: IEDB peptide-MHC binding, purified MHC/competitive/fluorescence; filed as Kd, often an IC50 or EC50 that approximates it; ≥ and ≤ were set here for values at or beyond the usual limits of such assays
HLA-B*58:01 [10] = test: IEDB peptide-MHC binding, purified MHC/competitive/radioactivity; filed as Kd, often an IC50 or EC50 that approximates it; ≥ and ≤ were set here for values at or beyond the usual limits of such assays
HLA-B*57:01 [11] = test: as above
HLA-B*53:01 = test: as above
HLA-A*02:01 [12] = test: IEDB peptide-MHC binding, purified MHC/competitive/fluorescence; filed as Kd, often an IC50 or EC50 that approximates it; ≥ and ≤ were set here for values at or beyond the usual limits of such assays
HLA-A*69:01 [13] = test: as above; settings: source organism: Human immunodeficiency virus 1
HLA-A*02:19 = test: as above
HLA-B*51:01 = test: as above; settings: source organism: Bacillus anthracis str. A2012
HLA-B*07:02 [14] = test: as above
HLA-B*35:01 [15] = test: as above
HLA-A*02:01 [16] = test: IEDB peptide-MHC binding, purified MHC/competitive/fluorescence; ≥ and ≤ were set here for values at or beyond the usual limits of such assays; settings: source organism: Zaire ebolavirus
HLA-A*32:01 = test: IEDB peptide-MHC binding, purified MHC/competitive/radioactivity; filed as Kd, often an IC50 or EC50 that approximates it; ≥ and ≤ were set here for values at or beyond the usual limits of such assays; settings: source organism: Dengue virus 3 Martinique/1243/1999
HLA-A*01:01 [17] = test: IEDB peptide-MHC binding, purified MHC/competitive/fluorescence; filed as Kd, often an IC50 or EC50 that approximates it; ≥ and ≤ were set here for values at or beyond the usual limits of such assays; settings: source organism: Yersinia pestis Nepal516
HLA-B*15:01 [18] = test: as above
HLA-A*03:01 [19] = test: as above; settings: source organism: Yersinia pestis Nepal516
HLA-A*02:01 [20] = test: IEDB peptide-MHC binding, purified MHC/direct/fluorescence; filed as Kd, often an IC50 or EC50 that approximates it; ≥ and ≤ were set here for values at or beyond the usual limits of such assays
HLA-A*68:02 = test: as above; settings: source organism: Escherichia coli O157:H7
HLA-A*31:01 = test: as above; settings: source organism: Escherichia coli O157:H7
HLA-B*07:02 [21] = test: as above
HLA-B*15:17 [22] = test: as above
HLA-B*35:01 [23] = test: IEDB peptide-MHC binding, purified MHC/competitive/radioactivity; filed as Kd, often an IC50 or EC50 that approximates it; ≥ and ≤ were set here for values at or beyond the usual limits of such assays
HLA-A*02:03 = test: IEDB peptide-MHC binding, purified MHC/competitive/fluorescence; filed as Kd, often an IC50 or EC50 that approximates it; ≥ and ≤ were set here for values at or beyond the usual limits of such assays; settings: source organism: Human immunodeficiency virus 1
HLA-B*15:17 [24] = test: as above; settings: source organism: Human immunodeficiency virus 1
HLA-A*02:12 = test: as above; settings: source organism: Francisella tularensis subsp. holarctica OSU18
HLA-B*15:01 [25] = test: IEDB peptide-MHC binding, purified MHC/direct/fluorescence; filed as Kd, often an IC50 or EC50 that approximates it; ≥ and ≤ were set here for values at or beyond the usual limits of such assays; settings: source organism: Bacillus anthracis
HLA-A*24:02 [26] = test: IEDB peptide-MHC binding, purified MHC/competitive/radioactivity; filed as Kd, often an IC50 or EC50 that approximates it; ≥ and ≤ were set here for values at or beyond the usual limits of such assays; settings: source organism: Dengue virus 2 Jamaica/1409/1983
HLA-A*24:02 [27] = test: IEDB peptide-MHC binding, purified MHC/competitive/fluorescence; ≥ and ≤ were set here for values at or beyond the usual limits of such assays; settings: source organism: Zaire ebolavirus
[28] = source organism: Escherichia coli O157:H7
[29] = source organism: Dengue virus 1 Brazil/97-11/1997
[30] = source organism: Dengue virus 3 Martinique/1243/1999
[31] = source organism: Human immunodeficiency virus 1
[32] = source organism: Bacillus anthracis str. A2012
[33] = source organism: Yersinia pestis Nepal516
[34] = source organism: Dengue virus 4 Philippines/H241/1956
[35] = source organism: Yersinia pestis CO92
[36] = source organism: Entamoeba histolytica HM-1:IMSS
[37] = source organism: Bacillus anthracis
[38] = source organism: Dengue virus 2 Jamaica/1409/1983
[39] = source organism: Escherichia coli O157:H7 str. EDL933

YRHILRSQG
IC50 (HLA-B*08:01): ≥ 171000 nM

YETLVGLAI
Kd (HLA-B*40:01 [1]; source organism: Salmonella enterica subsp. enterica serovar Typhi): 4 nM

MLKLRQARL
Kd (HLA-B*40:01 [2]): ≥ 20000 nM
Kd (HLA-A*11:01): ≥ 20000 nM
Kd (HLA-B*46:01): ≥ 20000 nM
Kd (HLA-B*18:01): ≥ 20000 nM
Kd (HLA-A*29:02 [3]): ≥ 20000 nM
Kd (HLA-B*44:02): ≥ 20000 nM
Kd (HLA-A*01:01 [4]; [28]): ≥ 20000 nM
Kd (HLA-B*27:05; [28]): ≥ 20000 nM
Kd (HLA-B*58:01 [5]; [28]): ≥ 20000 nM
Kd (HLA-B*48:01): ≥ 20000 nM
Kd (HLA-A*69:01 [6]): ≥ 20000 nM
Kd (HLA-B*57:01 [7]; [28]): ≥ 20000 nM
Kd (HLA-A*03:01 [8]; [28]): ≥ 20000 nM

TVEGIGHHY
Kd (HLA-A*29:02 [9]; source organism: Shigella sonnei Ss046): 36 nM

MSSEGAWKQI
Kd (HLA-B*58:01 [10]; [29]): 786 nM
Kd (HLA-B*57:01 [11]; [29]): 231 nM

AAVEDEDFW
Kd (HLA-B*58:01 [10]; [30]): 112 nM
Kd (HLA-B*53:01; [30]): 334 nM
Kd (HLA-B*57:01 [11]; [30]): 1110 nM

LTFGWCFKL
Kd (HLA-A*02:01 [12]; [31]): 152 nM
Kd (HLA-A*69:01 [13]): 46.5 nM
Kd (HLA-A*02:19; [31]): 755 nM

MPLKKQILF
Kd (HLA-B*51:01): 130 nM
Kd (HLA-B*07:02 [14]; [32]): 279 nM
Kd (HLA-B*35:01 [15]; [32]): ≤ 0.1 nM

WMSSEGAWKQ
Kd (HLA-B*58:01 [10]; [29]): 7760 nM

MNHKNKFMA
IC50 (HLA-A*02:01 [16]): ≥ 143000 nM
IC50 (HLA-B*08:01): 19900 nM

RVWIEDNPW
Kd (HLA-A*32:01): 71.9 nM
Kd (HLA-B*58:01 [10]; [30]): 2.11 nM
Kd (HLA-B*57:01 [11]; [30]): 49.6 nM

CLLSHTLAY
Kd (HLA-A*01:01 [17]): 1060 nM
Kd (HLA-B*15:01 [18]; [33]): 225 nM
Kd (HLA-B*35:01 [15]; [33]): 24.6 nM
Kd (HLA-A*03:01 [19]): 64.3 nM

ASSGMLWMAE
Kd (HLA-B*58:01 [10]; [30]): 2270 nM
Kd (HLA-B*57:01 [11]; [30]): ≥ 29300 nM

HEVHAVWPG
Kd (HLA-B*40:01 [2]): ≥ 20000 nM
Kd (HLA-A*11:01): ≥ 20000 nM
Kd (HLA-A*02:01 [20]; [28]): ≥ 20000 nM
Kd (HLA-A*68:02): ≥ 20000 nM
Kd (HLA-B*18:01): 193 nM
Kd (HLA-A*31:01): ≥ 20000 nM
Kd (HLA-B*07:02 [21]; [28]): ≥ 20000 nM
Kd (HLA-A*01:01 [4]; [28]): ≥ 20000 nM
Kd (HLA-B*27:05; [28]): ≥ 20000 nM
Kd (HLA-B*58:01 [5]; [28]): ≥ 20000 nM
Kd (HLA-B*48:01): ≥ 20000 nM
Kd (HLA-A*69:01 [6]): ≥ 20000 nM
Kd (HLA-B*15:17 [22]; [28]): ≥ 20000 nM
Kd (HLA-B*57:01 [7]; [28]): ≥ 20000 nM

IAVSTANIF
Kd (HLA-B*35:01 [23]; [34]): 151 nM
Kd (HLA-B*57:01 [11]; [34]): 407 nM

LYNTVATLY
Kd (HLA-A*02:01 [12]; [31]): 1160 nM
Kd (HLA-A*02:03): 570 nM
Kd (HLA-B*15:17 [24]): ≥ 20000 nM

SVYSWAIML
Kd (HLA-A*02:01 [12]; source organism: Francisella tularensis subsp. holarctica OSU18): 17.5 nM
Kd (HLA-A*02:12): 2320 nM

GELIFSHNL
Kd (HLA-B*40:01 [1]; [35]): 7 nM
Kd (HLA-B*15:01 [18]; [35]): 3150 nM

KTSIGLICVI
Kd (HLA-B*57:01 [11]; [30]): 213 nM

LPFERATV
Kd (HLA-B*07:02 [14]; source organism: Influenza A virus (A/swine/Italy/2/1979(H1N1))): 10.5 nM

SMFYGIFPS
Kd (HLA-A*02:01 [12]; [36]): 0.2 nM
Kd (HLA-A*02:19; [36]): 285 nM

LWNPYEWYQ
Kd (HLA-A*29:02 [9]; [32]): 520 nM

KTRTNDWDF
Kd (HLA-B*57:01 [11]; source organism: Dengue virus 2 Peru/IQT2913/1996): 6.54 nM

RTIQGQRFW
Kd (HLA-A*02:01 [20]; [37]): ≥ 20000 nM
Kd (HLA-B*07:02 [21]; [37]): ≥ 20000 nM
Kd (HLA-A*01:01 [4]; [37]): ≥ 20000 nM
Kd (HLA-B*27:05; [37]): ≥ 20000 nM
Kd (HLA-B*15:01 [25]): ≥ 20000 nM
Kd (HLA-B*58:01 [5]; [37]): ≥ 20000 nM
Kd (HLA-B*15:17 [22]; [37]): ≥ 20000 nM
Kd (HLA-B*57:01 [7]; [37]): ≥ 20000 nM
Kd (HLA-A*03:01 [8]; [37]): ≥ 20000 nM

IAASIILEF
Kd (HLA-B*58:01 [10]; [38]): 7.03 nM
Kd (HLA-B*53:01; [38]): 26.1 nM
Kd (HLA-B*35:01 [23]; [38]): 22 nM
Kd (HLA-A*24:02 [26]): 475 nM

SLFLPKLVV
IC50 (HLA-A*02:01 [16]): 200 nM
IC50 (HLA-B*08:01): ≥ 293000 nM
IC50 (HLA-A*24:02 [27]): 45400 nM

FEVKKRDGV
IC50 (HLA-B*08:01): ≥ 158000 nM

FERGVINVF
Kd (HLA-B*40:01 [1]; [39]): 3210 nM
Kd (HLA-B*15:01 [18]; [39]): 265 nM

From the Immune Epitope Database (IEDB)
